Reference: article PMC11334799

Legend:
human C3b (human) [1] = biological target: human C3b (human) (UniProt P01024); assay: BLI
human C3b (human) [2] = biological target: human C3b (human) (UniProt P01024)

Sequence of human C3b (human) (P01024 23-667, chain 1 of 2): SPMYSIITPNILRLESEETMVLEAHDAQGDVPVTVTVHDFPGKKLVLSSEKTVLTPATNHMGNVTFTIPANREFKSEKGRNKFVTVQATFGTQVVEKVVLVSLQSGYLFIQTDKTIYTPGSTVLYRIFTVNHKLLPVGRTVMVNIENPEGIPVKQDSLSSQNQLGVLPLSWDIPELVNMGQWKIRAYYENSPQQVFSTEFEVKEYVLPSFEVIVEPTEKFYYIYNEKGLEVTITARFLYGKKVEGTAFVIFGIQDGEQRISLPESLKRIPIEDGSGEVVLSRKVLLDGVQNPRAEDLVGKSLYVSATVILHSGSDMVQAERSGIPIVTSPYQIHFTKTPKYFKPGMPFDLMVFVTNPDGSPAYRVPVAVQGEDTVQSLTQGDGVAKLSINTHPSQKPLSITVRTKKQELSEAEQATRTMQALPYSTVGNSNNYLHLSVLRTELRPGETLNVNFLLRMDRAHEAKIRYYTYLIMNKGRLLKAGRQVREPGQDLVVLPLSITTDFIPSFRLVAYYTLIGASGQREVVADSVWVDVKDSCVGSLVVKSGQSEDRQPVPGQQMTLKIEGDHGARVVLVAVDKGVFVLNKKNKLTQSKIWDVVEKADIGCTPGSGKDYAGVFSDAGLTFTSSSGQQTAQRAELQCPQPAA
Sequence of human C3b (human) (P01024 749-1663, chain 2 of 2): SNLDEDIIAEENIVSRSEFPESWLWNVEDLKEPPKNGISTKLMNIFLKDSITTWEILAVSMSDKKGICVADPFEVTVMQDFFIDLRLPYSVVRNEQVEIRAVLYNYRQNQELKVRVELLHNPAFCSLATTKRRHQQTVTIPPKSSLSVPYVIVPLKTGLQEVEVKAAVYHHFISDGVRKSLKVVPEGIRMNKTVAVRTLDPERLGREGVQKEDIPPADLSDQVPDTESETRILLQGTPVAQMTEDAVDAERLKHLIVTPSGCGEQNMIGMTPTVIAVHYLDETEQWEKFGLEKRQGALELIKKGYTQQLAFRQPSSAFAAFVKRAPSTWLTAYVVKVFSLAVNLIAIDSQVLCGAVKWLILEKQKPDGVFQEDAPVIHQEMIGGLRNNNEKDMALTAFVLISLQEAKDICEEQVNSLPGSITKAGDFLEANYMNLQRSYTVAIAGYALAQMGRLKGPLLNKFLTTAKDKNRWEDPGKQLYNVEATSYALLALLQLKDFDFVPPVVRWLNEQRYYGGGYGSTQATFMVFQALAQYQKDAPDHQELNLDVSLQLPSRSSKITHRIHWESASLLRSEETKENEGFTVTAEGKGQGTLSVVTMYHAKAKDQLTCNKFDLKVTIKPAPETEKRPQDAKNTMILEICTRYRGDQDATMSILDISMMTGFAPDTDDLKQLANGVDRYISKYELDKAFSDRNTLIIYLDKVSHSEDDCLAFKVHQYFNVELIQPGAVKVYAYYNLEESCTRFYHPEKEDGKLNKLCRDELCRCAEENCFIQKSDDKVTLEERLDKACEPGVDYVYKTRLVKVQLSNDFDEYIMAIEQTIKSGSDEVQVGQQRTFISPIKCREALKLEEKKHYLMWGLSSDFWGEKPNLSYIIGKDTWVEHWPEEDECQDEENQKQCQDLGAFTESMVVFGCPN

Work on “CG001, (CRIg-FH-IgG4 Fc) x2 (from UniProt Q9Y279 20-283; P08603 18-264) (Fc fusion)” yielded a Kd (human C3b (human) [1]) of 4.24 nM, an AP-mediated hemolysis of rabbit erythrocytes (12% NHS), IC50 (human C3b (human) [2]) of 88.9 nM and an AP-mediated hemolysis of rabbit erythrocytes (12% NHS), IC95 (human C3b (human) [2]) of 207 nM. The CP-mediated hemolysis of sheep erythrocytes (0.2% hemolysin, 1% NHS), IC50 (human C3b (human) [2]) was 446 nM and the CP-mediated hemolysis of sheep erythrocytes (0.2% hemolysin, 1% NHS), IC95 (human C3b (human) [2]) was 34200 nM.
